Assay results: publication PMC4467794 (Cell, 2015)

Target: T1, Mcx1^Y174A-3xFLAG (pore-1 loop Y174A), purified recombinant (S. cerevisiae, UniProt P38323 14-520, Y174A)
T1 sequence (looked up): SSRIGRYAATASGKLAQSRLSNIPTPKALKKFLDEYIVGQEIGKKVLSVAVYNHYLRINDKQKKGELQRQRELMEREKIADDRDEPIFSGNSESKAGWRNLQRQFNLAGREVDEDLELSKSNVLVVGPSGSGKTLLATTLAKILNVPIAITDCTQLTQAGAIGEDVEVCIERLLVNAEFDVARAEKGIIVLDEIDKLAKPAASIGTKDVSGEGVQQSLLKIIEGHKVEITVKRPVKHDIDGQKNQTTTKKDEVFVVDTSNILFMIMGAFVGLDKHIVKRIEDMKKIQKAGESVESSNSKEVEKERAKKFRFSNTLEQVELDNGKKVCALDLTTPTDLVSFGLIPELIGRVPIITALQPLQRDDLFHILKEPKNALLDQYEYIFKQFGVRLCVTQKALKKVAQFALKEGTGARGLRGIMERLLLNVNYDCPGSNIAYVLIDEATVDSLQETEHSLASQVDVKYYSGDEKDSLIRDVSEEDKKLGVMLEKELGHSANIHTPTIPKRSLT
Experiment: co-IP

fold amount bound relative to holoHem1: ~10 fold
B1: apoHem1 (PLP-free Hem1, yeast ALA synthase), purified recombinant (enzyme)
chain: not shown
